Test results reported in patent US20090298759A1 (published 2009).

Assays:
FcγRI = molecular target: T1, FcγRI; assay: surface plasmon resonance; FcγRI immobilized (1000 µRIU), CRP injected at 42, 84, 169 and 338 nM
T1 construct: also called FcgRI; CD64
Experimental: FcγRI (1000 μRIU) were immobilized CRP was injected @ 42 nM, 84 nM, 169 nM and 338 nM. Data are recorded as resonance units over time after injection.

[1] = molecular target: T2, recombinant human FcγRI from R&D Systems (Cat#1257-FC-050) (human, UniProt P12314 16-292); assay: ELISA, recombinant human FcγRI
T2 construct: extracellular domain; Bought reagent; also called CD64
T2 sequence (P12314 16-292): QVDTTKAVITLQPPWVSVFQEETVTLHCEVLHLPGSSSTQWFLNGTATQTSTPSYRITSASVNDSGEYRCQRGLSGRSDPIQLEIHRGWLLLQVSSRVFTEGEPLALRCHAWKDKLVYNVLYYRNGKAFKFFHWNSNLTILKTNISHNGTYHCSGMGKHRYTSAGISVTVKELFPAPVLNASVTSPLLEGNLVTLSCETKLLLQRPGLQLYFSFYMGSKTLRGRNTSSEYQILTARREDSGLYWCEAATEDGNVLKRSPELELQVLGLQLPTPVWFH

T1 sequence (P12314 16-292): as above

B1: C-reactive protein (CRP) (ligand)
chain: QTDMSRKAFVFPKESDTSYVSLKAPLTKPLKAFTVCLHFYTELSSTRGYSIFSYATKRQDNEILIFWSKDIGYSFTVGGSEILFEVPEVTVAPVHICTSWESASGIVEFWVDGKPRVRKSLKKGYTVGAEASIILGQEQDSFGGNFEGSQSLVGDIGNVNMWDFVLSPDEINTIYLGGPFSPNVLNWRALKYEVQGEVFTKPQLWP
notes: also called human CRP
Which results are given for B1?
Kd (FcγRI): 183 nM; binding result [1]: binds
